The target in the test is SARS-CoV-2 Omicron BA.2 spike extracellular domain trimer (SARS-CoV-2 (Omicron BA.2)) (UniProt P0DTC2).

This is an account of results in doi:10.1101/2022.04.12.488075.

By Kd is commonly meant the free concentration of one partner at which half of the binding sites on the other are occupied at equilibrium, for simple one-to-one binding.

In turn, JMB2002 IgG (antibody) registered a Kd of 0.3 nM. That is a sub-nanomolar value.

As to JMB2002 Fab, the Kd is 2.6 nM.
